Here are results for 36 molecules from patent publication US20090280138A1 (OXFORD BIOMEDICA UK, published 2009).

Test in all cases: iTopia iScore
Assay [1] deals with T1, MHC class I molecule B*0702 (biotin (bound to streptavidin-coated plate)).
T1 construct: also called B7; HLA-B7
As to the method:
(§1) The 9 mers were tested for Peptide Binding, Off Rate and Affinity using iTopia Epitope Discovery System in accordance with the manufacturer's instructions. Briefly, 96 well microtitre plates coated with MHC molecules representing different MHC alleles are used to identify candidate peptides. […] Determinations are performed in duplicate using an ELISA plate reader and included allele specific positive controls.
(§2) Finally, multiparametric analysis is performed on the results from these assays and an iScore is generated. The iScore represents a measure of the overall quality of peptide-MHC binding, enabling candidate peptides to be ranked in order of binding quality and allowing rational prioritisation of peptides for functional cellular follow-up studies.

Assay [2] addresses T2, MHC class I molecule A*0201 (biotin (bound to streptavidin-coated plate)).
T2 construct: also called A2; HLA-A2
How it is done:
as §1, §2

Assay [3] has as its target T3, MHC class I molecule A*0301 (biotin (bound to streptavidin-coated plate)).
T3 construct: also called A3; HLA-A3
As to the method:
as §1, §2

Assay [4] deals with T4, MHC class I molecule A*0101 (biotin (bound to streptavidin-coated plate)).
T4 construct: also called A1; HLA-A1
How it is done:
as §1, §2

B1: 5T4 9-mer peptide 77 PLADLSPFA (peptide)
peptide: PLADLSPFA
Consider B1, for which the iScore in assay [1] is 0; in assay [2], 0.556; in assay [3], 0; in assay [4], 0.

B2: 5T4 9-mer peptide 82 SGSNASVSA (peptide)
peptide: SGSNASVSA
With B2, the iScore in assay [1], in assay [2], in assay [3] and in assay [4] was 0 throughout.

B3: 5T4 9-mer peptide 58 PPLAELAAL (peptide)
peptide: PPLAELAAL
For the molecule B3, the iScore in assay [1] came out at 0.145; in assay [2], 0.075; in assay [3] it was 0; in assay [4] it was 0.

B4: 5T4 9-mer peptide 55 GAFARRPPL (peptide)
peptide: GAFARRPPL
On to B4, for which the iScore in assay [1] was 0.359; in assay [2] it was 0.222; in assay [3], 0; in assay [4] it was 0.

B5: 5T4 9-mer peptide 57 RRPPLAELA (peptide)
peptide: RRPPLAELA
As for B5, the iScore in assay [1], in assay [2], in assay [3] and in assay [4] was 0 in each case.

B6: 5T4 9-mer peptide 53 VLPAGAFAR (peptide)
peptide: VLPAGAFAR
For the molecule B6, the iScore amounted to 0 in assay [1], 0.081 in assay [2], 0.027 in assay [3] and 0 in assay [4].

B7: 5T4 9-mer peptide 62 LNLSGSRLD (peptide)
peptide: LNLSGSRLD
Regarding B7, the iScore in assay [1], in assay [2], in assay [3] and in assay [4] was 0 throughout.

B8: 5T4 9-mer peptide 75 LSHNPLADL (peptide)
peptide: LSHNPLADL
As for B8, the iScore in assay [1] was 0; in assay [2], 0.095; in assay [3] it was 0; in assay [4], 0.

B9: 5T4 9-mer peptide 87 SPLVELILN (peptide)
peptide: SPLVELILN
Take B9: the iScore in assay [1] is 0; in assay [2], 0.094; in assay [3] it was 0; in assay [4] it was 0.

B10: 5T4 9-mer peptide 63 LSGSRLDEV (peptide)
peptide: LSGSRLDEV
On to B10, for which the iScore stood at 0.107 in assay [1], 0.075 in assay [2], 0 in assay [3] and 0 in assay [4].

B11: 5T4 9-mer peptide 85 VSAPSPLVE (peptide)
peptide: VSAPSPLVE
Turning to B11, the iScore in assay [1], in assay [2], in assay [3] and in assay [4] was 0 throughout.

B12: 5T4 9-mer peptide 68 AGAFEHLPS (peptide)
peptide: AGAFEHLPS
With B12, the iScore in assay [1], in assay [2], in assay [3] and in assay [4] was 0 in each case.

B13: 5T4 9-mer peptide 54 PAGAFARRP (peptide)
peptide: PAGAFARRP
Take B13: the iScore in assay [1], in assay [2], in assay [3] and in assay [4] was 0 in each case.

B14: 5T4 9-mer peptide 73 RQLDLSHNP (peptide)
peptide: RQLDLSHNP
For the molecule B14, the iScore in assay [1], in assay [2], in assay [3] and in assay [4] was 0 each time.

B15: 5T4 9-mer peptide 79 LSPFAFSGS (peptide)
peptide: LSPFAFSGS
As to B15, the iScore is 0 in assay [1], 0.064 in assay [2], 0 in assay [3] and 0 in assay [4].

B16: 5T4 9-mer peptide 60 ELAALNLSG (peptide)
peptide: ELAALNLSG
Regarding B16, the iScore in assay [1] is 0; in assay [2], 0.075; in assay [3], 0; in assay [4] it was 0.

B17: 5T4 9-mer peptide 84 ASVSAPSPL (peptide)
peptide: ASVSAPSPL
For the molecule B17, the iScore came out at 0.017 in assay [1], 0.059 in assay [2], 0 in assay [3] and 0 in assay [4].

B18: 5T4 9-mer peptide 80 PFAFSGSNA (peptide)
peptide: PFAFSGSNA
With B18, the iScore in assay [1], in assay [2], in assay [3] and in assay [4] was 0 in each case.

B19: 5T4 9-mer peptide 64 GSRLDEVRA (peptide)
peptide: GSRLDEVRA
B19: the iScore in assay [1] worked out at 0; in assay [2], 0.13; in assay [3], 0; in assay [4], 0.

B20: 5T4 9-mer peptide 69 AFEHLPSLR (peptide)
peptide: AFEHLPSLR
With B20, the iScore in assay [1], in assay [2], in assay [3] and in assay [4] was 0 in each case.

B21: 5T4 9-mer peptide 78 ADLSPFAFS (peptide)
peptide: ADLSPFAFS
Regarding B21, the iScore in assay [1] is 0; in assay [2] it was 0.116; in assay [3] it was 0; in assay [4] it was 0.

B22: 5T4 9-mer peptide 67 VRAGAFEHL (peptide)
peptide: VRAGAFEHL
B22: the iScore in assay [1] was determined as 0.085; in assay [2] it was 0; in assay [3], 0; in assay [4], 0.

B23: 5T4 9-mer peptide 61 AALNLSGSR (peptide)
peptide: AALNLSGSR
As to B23, the iScore in assay [1], in assay [2], in assay [3] and in assay [4] was 0 in each case.

B24: 5T4 9-mer peptide 76 HNPLADLSP (peptide)
peptide: HNPLADLSP
In the case of B24, the iScore in assay [1], in assay [2], in assay [3] and in assay [4] was 0 throughout.

B25: 5T4 9-mer peptide 83 SNASVSAPS (peptide)
peptide: SNASVSAPS
As to B25, the iScore in assay [1] turned out to be 0; in assay [2] it was 0.154; in assay [3], 0; in assay [4], 0.

B26: 5T4 9-mer peptide 86 APSPLVELI (peptide)
peptide: APSPLVELI
Regarding B26, the iScore in assay [1] came to 0.101; in assay [2], 0; in assay [3], 0; in assay [4] it was 0.

B27: 5T4 9-mer peptide 70 EHLPSLRQL (peptide)
peptide: EHLPSLRQL
In the case of B27, the iScore came to 0 in assay [1], 0.046 in assay [2], 0 in assay [3] and 0 in assay [4].

B28: 5T4 9-mer peptide 66 DEVRAGAFE (peptide)
peptide: DEVRAGAFE
As to B28, the iScore in assay [1], in assay [2], in assay [3] and in assay [4] was 0 in each case.

B29: 5T4 9-mer peptide 72 SLRQLDLSH (peptide)
peptide: SLRQLDLSH
On to B29, for which the iScore in assay [1], in assay [2], in assay [3] and in assay [4] was 0 in each case.

B30: 5T4 9-mer peptide 56 FARRPPLAE (peptide)
peptide: FARRPPLAE
Consider B30, for which the iScore in assay [1] came out at 0; in assay [2], 0.042; in assay [3] it was 0; in assay [4], 0.

B31: 5T4 9-mer peptide 81 AFSGSNASV (peptide)
peptide: AFSGSNASV
With B31, the iScore in assay [1] is 0; in assay [2] it was 0.116; in assay [3], 0; in assay [4], 0.

B32: 5T4 9-mer peptide 71 LPSLRQLDL (peptide)
peptide: LPSLRQLDL
With B32, the iScore in assay [1] was determined as 0.454; in assay [2] it was 0.098; in assay [3] it was 0; in assay [4] it was 0.

B33: 5T4 9-mer peptide 117 LPSLRHLDL (peptide)
peptide: LPSLRHLDL
On to B33, for which the iScore in assay [1] stood at 0.445; in assay [2], 0.028; in assay [3], 0; in assay [4], 0.

B34: 5T4 9-mer peptide 59 LAELAALNL (peptide)
peptide: LAELAALNL
Regarding B34, the iScore came to 0.074 in assay [1], 0.72 in assay [2], 0 in assay [3] and 0 in assay [4].

B35: 5T4 9-mer peptide 74 LDLSHNPLA (peptide)
peptide: LDLSHNPLA
On to B35, for which the iScore stood at 0 in assay [1], 0.226 in assay [2], 0 in assay [3] and 0 in assay [4].

B36: 5T4 9-mer peptide 65 RLDEVRAGA (peptide)
peptide: RLDEVRAGA
On to B36, for which the iScore in assay [1] was determined as 0.032; in assay [2], 0.422; in assay [3], 0.057; in assay [4] it was 0.
